Where two headings read alike, the source gives them in different places.
Experiments:
[1] = molecular target: T1, human PD-L1 on CHO-K1 cells (CHO-K1/hPD-L1, Nanjing Genscript, M00543) (human, UniProt Q9NZQ7 19-290); experiment: flow cytometry competition: biotin-hPD-1 binding to CHO-K1/hPD-L1 cells
T1 construct: whole, on cells; also called CHO-K1 cells overexpressing human PD-L1; human PD-L1 on the cell surface
Procedure: (§1) In brief, the CHO-K1/hPD-L1 cells were digested, and resuspended in F-12K complete medium. The cell density was adjusted to 1× 10⁶ cells/mL. […] Cells were placed at 4° C., and were incubated away from light for 1 hr. Then, the cells were centrifugated at 4° C. for 5 mins, and the supernatant was discarded. […] The cells were washed with 100 μL/well of pre-cooled PBS twice, centrifuged at 500 g, 4° C. for 5 mins, and the supernatant was discarded. […] 200 μL/well of pre-cooled PBS was used to wash cells twice, cells were centrifuged at 500 g, 4° C. for 5 mins, the supernatant was discarded. Finally, 200 μL/well of pre-cooled PBS was used to resuspend cells. The BD FACS MAYTOII was used to read the signal value of fluorescent luminescence. The software GraphPad Prism 8 was applied to perform data processing and plotting analysis, and the parameters such as binding curves and IC50 values were obtained by four-parameter non-linear fitting.

[2] = molecular target: T1, human PD-L1 on CHO-K1 cells …; experiment: as above; remark: listed apart in the source
Procedure: as §1

[3] = molecular target: T1, human PD-L1 on CHO-K1 cells …; experiment: flow cytometry on CHO-K1/hPD-L1 cells
Source text: (§2) To study the binding activity of the PD-L1 antigen binding proteins to human/cynomolgus PD-L1 in vitro, this example uses the CHOK1 cell line overexpressing human PD-L1 (CHO-K1/hPD-L1, Nanjing Genscript, M00543) or the CHOK1 cell line overexpressing cynomolgus PD-L1 (CHO-K1/cynoPD-L1, Nanjing Genscript, M00573) to perform binding experiments at cellular level. In brief, the PD-L1 cells were digested, and resuspended in F-12K complete medium, and the cell density was adjusted to 1× 10⁶ cells/mL. […] The cells were placed at 4° C., incubated away from light for 1 hr. Then, 100 μL/well of pre-cooled PBS was added to wash cells twice. The cells were centrifuged at 500 g, 4° C. for 5 mins, and the supernatant was discarded. […] 200 μL/well of pre-cooled PBS was added to wash cells twice, and the cells were centrifuged at 500 g, 4° C. for 5 mins, and the supernatant was discarded. Finally, the cells were resuspended with 200 μL/well of pre-cooled PBS. The signal values of fluorescent luminescence were read using BD FACS MAYTOII. The flow cytometer BD FAC MAYTOII was used to read the signal values of fluorescent luminescence, and the software FlowJo v10 (FlowJo, LLC) was used to process and analyze data. […]

[4] = molecular target: human PD-L1 on Hep3B cells co-expressing human PD-L1 and OS8 (human, UniProt Q9NZQ7 19-290); experiment: cell-based or functional assay
Chain of human PD-L1 on Hep3B cells co-expressing human PD-L1 and OS8 (Q9NZQ7 19-290): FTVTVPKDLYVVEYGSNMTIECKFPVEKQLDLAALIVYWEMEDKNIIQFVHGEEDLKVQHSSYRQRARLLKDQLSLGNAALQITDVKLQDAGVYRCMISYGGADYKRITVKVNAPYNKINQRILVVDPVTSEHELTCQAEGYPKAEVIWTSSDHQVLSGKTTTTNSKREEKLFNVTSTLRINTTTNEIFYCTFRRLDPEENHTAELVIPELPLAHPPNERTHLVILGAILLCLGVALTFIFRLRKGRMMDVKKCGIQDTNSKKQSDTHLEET

[5] = molecular target: T1, human PD-L1 on CHO-K1 cells …; experiment: flow cytometry on CHO-K1/hPD-L1 cells; remark: listed apart in the source
Source text: as §2

T1 sequence (Q9NZQ7 19-290, one chain of several): as the sequence (Q9NZQ7 19-290) above

B1: PR000416 (antibody, human IgG1, kappa)
heavy: not shown
light: DIQMTQSPSTLSASVGDRVTVTCRASQSIYIWLAWYQQKPGKAPNLLIYKASSLETGVPSRFSGSGSGTEFTLTISSLQPDDFATYYCQQYYGSSRTFGQGTKVEIKRTVAAPSVFIFPPSDEQLKSGTASVVCLLNNFYPREAKVQWKVDNALQSGNSQESVTEQDSKDSTYSLSSTLTLSKADYEKHKVYACEVTHQGLSSPVTKSFNRGEC
notes: PR000265 with the heavy chain constant region replaced by the human IgG1 constant region without mutation; also called Fc-type switching of PR000265
An IC50 [1] of 0.19 nM, an IC50 [2] of 0.127 nM and an EC50 [3] of 0.231 nM were found for B1 in this work. For the same binder, the MFI maximum value [3] was 37900 MFI, the “EC50 (nM), PD-1 reporter gene cell line” value [4] was 0.077 nM and the “Maximum fluorescence value (RLU)” value [4] was 3660 RLU. For the same binder, the EC50 [5] was 0.259 nM and the MFI maximum value [5] was 40400 MFI.

— patent publication US20260258137A1 (HARBOUR BIOMED SHANGHAI, published 2026)
